To fix the notation:
B1: TMEM106C (parent)
chain: SEQLVNFTGKAEMGGPFSYVYFFC
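Also: lentivirally expressed fusions sorted by FACS into six bins by GFP to DsRed ratio, PSI derived from sequencing read proportions per bin multiplied by bin number.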

The data set covers variants of B1. Put plainly: protein stability index of a GFP-peptide fusion (GPS, HEK-293T) (PSI 1-6); higher = more stable. As to conditions: c terminus: a fixed tail appended.
For SEQLVNFTGKAEMGGPFSYVYFAC, the protein stability index came to 2.45.
Consider SEQLVNFTGKAEMGGPFSYVYFYC, for which the protein stability index is 3.3.
As for SEQLVNFTGKAEMGGPFSYVYFRC, the protein stability index stood at 4.48.
Regarding SEQLVNFTGKAEMGGPFSYVYFPC, the protein stability index was found to be 1.51.
With SEQLVNFTGKAEMGGPFSYVYFEC the figure was 2.15; with SEQLVNFTGKAEMGGPFSYVYFTC, 2.05.
With SEQLVNFTGKAEMGGPFSYVYFDC, the protein stability index came to 1.56.
As to SEQLVNFTGKAEMGGPFSYVYFKC, the protein stability index was 1.79.
With SEQLVNFTGKAEMGGPFSYVYFQC, the protein stability index is 2.9.
With SEQLVNFTGKAEMGGPFSYVYFGC, the protein stability index is 3.03.
SEQLVNFTGKAEMGGPFSYVYFCC: the protein stability index stood at 2.54.
For SEQLVNFTGKAEMGGPFSYVYFIC the value was 2.42; for SEQLVNFTGKAEMGGPFSYVYFNC, 1.35; for SEQLVNFTGKAEMGGPFSYVYFHC, 2.28.
In the case of SEQLVNFTGKAEMGGPFSYVYFWC, the protein stability index was 3.85.
With SEQLVNFTGKAEMGGPFSYVYFSC the figure was 3.45.
With SEQLVNFTGKAEMGGPFSYVYFVC the figure was 3.22; with SEQLVNFTGKAEMGGPFSYVYFLC, 2.08.
Consider SEQLVNFTGKAEMGGPFSYVEFFC, for which the protein stability index is 1.42.
Consider SEQLVNFTGKAEMGGPFSYVFFFC, for which the protein stability index amounted to 3.1.
Take SEQLVNFTGKAEMGGPFSYVQFFC: the protein stability index stood at 2.15.
Consider SEQLVNFTGKAEMGGPFSYVSFFC, for which the protein stability index was 2.44.
As to SEQLVNFTGKAEMGGPFSYVMFFC, the protein stability index came to 3.64.
Regarding SEQLVNFTGKAEMGGPFSYVRFFC, the protein stability index was found to be 1.49.
For SEQLVNFTGKAEMGGPFSYVCFFC the value was 2.42; for SEQLVNFTGKAEMGGPFSYVVFFC, 3.6.
As to SEQLVNFTGKAEMGGPFSYVGFFC, the protein stability index amounted to 1.84.
On to SEQLVNFTGKAEMGGPFSYVNFFC, for which the protein stability index was found to be 2.82.
For SEQLVNFTGKAEMGGPFSYVHFFC the value was 2.26; for SEQLVNFTGKAEMGGPFSYVKFFC, 2.06; for SEQLVNFTGKAEMGGPFSYVLFFC, 3.93.
Consider SEQLVNFTGKAEMGGPFSYVAFFC, for which the protein stability index is 3.06.
On to SEQLVNFTGKAEMGGPFSYVTFFC, for which the protein stability index amounted to 3.31.
For SEQLVNFTGKAEMGGPFSYVDFFC the value was 1.89.
As to SEQLVNFTGKAEMGGPFSYVPFFC, the protein stability index was determined as 1.49.
For SEQLVNFTGKAEMGGPFSYYYFFC, the protein stability index was determined as 2.53.
Regarding SEQLVNFTGKAEMGGPFSYVYFFQ, the protein stability index stood at 1.54.
Turning to SEQLVNFTGKAEMGGPFSYVYFFD, the protein stability index was 2.36.
With SEQLVNFTGKAEMGGPFSYVYFFM, the protein stability index worked out at 2.82.
Turning to SEQLVNFTGKAEMGGPFSYVYFFR, the protein stability index was 2.09.
With SEQLVNFTGKAEMGGPFSYVYFFT the figure was 3.96.
As for SEQLVNFTGKAEMGGPFSYVYFFW, the protein stability index stood at 3.35.
SEQLVNFTGKAEMGGPFSYVYFFK: the protein stability index worked out at 2.07.
Turning to SEQLVNFTGKAEMGGPFSYVYFFA, the protein stability index amounted to 3.11.
As for SEQLVNFTGKAEMGGPFSYVYFFP, the protein stability index stood at 1.73.
For SEQLVNFTGKAEMGGPFSYVYFFG the value was 2.53; for SEQLVNFTGKAEMGGPFSYVYFFV, 3.49; for SEQLVNFTGKAEMGGPFSYVYFFS, 2.23.
Regarding SEQLVNFTGKAEMGGPFSYVYFFI, the protein stability index turned out to be 3.26.
Consider SEQLVNFTGKAEMGGPFSYVYFFY, for which the protein stability index came out at 3.05.
For SEQLVNFTGKAEMGGPFSYVYFFH the value was 3.25; for SEQLVNFTGKAEMGGPFSYVYFFF, 3.13; for SEQLVNFTGKAEMGGPFSYVYFFE, 2.29.
In the case of SEQLVNFTGKAEMGGPFSYVYFFN, the protein stability index was found to be 1.89.
For SEQLVNFTGKAEMGGPFSYVYKFC, the protein stability index came to 1.84.
For the variant SEQLVNFTGKAEMGGPFSYVYQFC, the protein stability index is 2.07.
With SEQLVNFTGKAEMGGPFSYVYSFC the figure was 2.12; with SEQLVNFTGKAEMGGPFSYVYIFC, 1.96; with SEQLVNFTGKAEMGGPFSYVYAFC, 2.62.
For SEQLVNFTGKAEMGGPFSYVYWFC, the protein stability index came to 2.21.
As for SEQLVNFTGKAEMGGPFSYVYYFC, the protein stability index worked out at 2.78.
Take SEQLVNFTGKAEMGGPFSYVYCFC: the protein stability index amounted to 2.58.
As to SEQLVNFTGKAEMGGPFSYVYPFC, the protein stability index turned out to be 2.06.
Turning to SEQLVNFTGKAEMGGPFSYVYTFC, the protein stability index was 3.71.
Turning to SEQLVNFTGKAEMGGPFSYVYNFC, the protein stability index worked out at 1.79.
Turning to SEQLVNFTGKAEMGGPFSYVYGFC, the protein stability index came to 2.86.
Consider SEQLVNFTGKAEMGGPFSYVYMFC, for which the protein stability index is 3.04.
For SEQLVNFTGKAEMGGPFSYVYVFC, the protein stability index came out at 3.27.
With SEQLVNFTGKAEMGGPFSYVYDFC, the protein stability index was 2.33.
With SEQLVNFTGKAEMGGPFSYVYEFC the figure was 1.88.
For SEQLVNFTGKAEMGGPFSYVYHFC, the protein stability index amounted to 3.04.
For the variant SEQLVNFTGKAEMGGPFSYVYRFC, the protein stability index is 2.28.

The record behind these values is the supplement of paper PMC10567573.
